What is called EC50 (read off the curve) is the concentration giving half of the maximal effect. Higher therefore signals weaker potency. For orientation: IC50 means the concentration that gives 50% inhibition. Read a low IC50 as greater potency in that assay. By EC50 is commonly meant the concentration that produces a half-maximal response. Low readings indicate an effect from little substance, high ones a need for much substance.

Substitutions are numbered along the chain they refer to.

This is an account of results in patent US20200247886A1 (ZLIP, published 2020).

Assay [1] deals with T1, biotin labelled polyhistidine tagged CD47 protein (Novoprotein, Cat#321) (human, UniProt Q08722 19-139, biotin labelled (site not stated)).
T1 construct: Bought protein; also called biotinylated CD47; biotinylated human CD47 protein; not shown: polyhistidine tag
Briefly: flow cytometry blocking assay: biotinylated CD47 with Fab on SIRPα-expressing CHO cells (SIRPα is the blocked ligand), frequency.

Assay [2] addresses T2, His-tagged CD47 (Homo sapiens (Human), UniProt Q08722 19-139, limits assumed).
T2 construct: not shown: His tag
Briefly: flow cytometry blocking assay: His-tagged CD47 with Fab on SIRPα-expressing CHO cells (SIRPα is the blocked ligand), anti-His-APC, frequency. On the technique in general: In flow cytometry, cells or beads pass a laser one at a time.

The target of assay [3] is T3, human CD47 expressed on cells (CD47 expressing CHO cells, Jurkat, HL60, DLD1, Raji) (human, UniProt Q08722 19-292).
T3 construct: also called CHO-CD47; IAP
The assay is described as follows: flow cytometry on DLD1 cells, Fab, frequency.

Assay [4] has as its target T1, biotin labelled polyhistidine tagged …. Briefly: IC50 (nM) as grade, Fab blocking biotinylated CD47 binding to SIRPα-CHO cells; legend +++: <10 nM.
Assay [5] has as its target T3, human CD47 expressed on cells (CD47 …). The assay is described as follows: EC50 (nM) as grade, flow cytometry, Fab on HL60 cells; legend ++: >1 nM and <7 nM.
Assay [6] deals with T2, His-tagged CD47. Briefly: IC50 (nM) Frequency as grade, blocking His-tagged CD47 binding to SIRPα-CHO cells; legend ++: >2 nM and <2.7 nM.
The target in assay [7] is T2, His-tagged CD47. The assay is described as follows: flow cytometry blocking assay: His-tagged CD47 with Fab on SIRPα-expressing CHO cells (SIRPα is the blocked ligand), anti-His-APC, MFI.
In assay [8] the target is T3, human CD47 expressed on cells (CD47 …). The assay is described as follows: EC50 (nM) as grade, flow cytometry, Fab on DLD1 cells; legend +++: <5 nM.
For assay [9] the target is unchanged. Briefly: flow cytometry on HL60 cells, Fab, frequency.
Assay [10] has as its target T2, His-tagged CD47. The assay is described as follows: IC50 (nM) MFI as grade, blocking His-tagged CD47 binding to SIRPα-CHO cells; legend +++: <2 nM.
Assay [11] addresses T3, human CD47 expressed on cells (CD47 …). The assay is described as follows: EC50 (nM) as grade, flow cytometry, Fab on HL60 cells; legend +: >7 nM.
Assay [12] has as its target T1, biotin labelled polyhistidine tagged …. Briefly: IC50 (nM) as grade, Fab blocking biotinylated CD47 binding to SIRPα-CHO cells; legend ++: >10 nM and <65 nM.
In assay [13] the target is T3, human CD47 expressed on cells (CD47 …). Briefly: flow cytometry blocking assay on Raji cells, SIRPα is the blocked ligand, MFI.
For assay [14] the target is unchanged. The assay is described as follows: flow cytometry blocking assay: 100 nM biotinylated SIRPa-Fc (blocked ligand) on DLD1 cells expressing CD47, frequency.
Assay [15] shares this target. The assay is described as follows: flow cytometry blocking assay: 100 nM biotinylated SIRPa-Fc (blocked ligand) on DLD1 cells expressing CD47, MFI.
The target is the same in assay [16]. Briefly: flow cytometry on human red blood cells, donor 1, MFI.
Assay [17] concerns the target T1, biotin labelled polyhistidine tagged …. Briefly: flow cytometry blocking assay: antibody mixed with biotinylated human CD47 protein; blocked ligand SIRPα on cells; binding percentage.
Assay [18] addresses T3, human CD47 expressed on cells (CD47 …). The assay is described as follows: IC50 as grade, SIRPα blocking on Raji cells; legend +++: <1 nM.
Assay [19] shares this target. The assay is described as follows: flow cytometry on human platelets, donor 2, MFI.
For assay [20], the target named is T2, His-tagged CD47. Briefly: IC50 (nM) Frequency as grade, blocking His-tagged CD47 binding to SIRPα-CHO cells; legend +: >2.7 nM.
Assay [21] addresses T3, human CD47 expressed on cells (CD47 …). Briefly: IC50 (nM) MFI as grade, blocking biotinylated SIRPa-Fc binding to DLD1 cells; legend +++: <1 nM.
Assay [22] has the same target. The assay is described as follows: flow cytometry on DLD1 cells, IgG, MFI.
The target is the same in assay [23]. Briefly: flow cytometry on CD47 expressing CHO cells, MFI (FL-4).
For assay [24] the target is unchanged. The assay is described as follows: flow cytometry blocking assay on Raji cells, SIRPα is the blocked ligand, MFI. This is another data set of the same source.
Assay [25] deals with T2, His-tagged CD47. The assay is described as follows: IC50 (nM) MFI as grade, blocking His-tagged CD47 binding to SIRPα-CHO cells; legend +: >2.7 nM.
Assay [26] deals with T3, human CD47 expressed on cells (CD47 …). Briefly: flow cytometry SIRP-alpha blocking assay on Raji cells, MFI.
Assay [27] shares this target. Briefly: flow cytometry on human red blood cells, donor 2, MFI.
The target is the same in assay [28]. The assay is described as follows: IC50 (nM) Frequency as grade, blocking biotinylated SIRPa-Fc binding to DLD1 cells; legend ++: >1 nM and <20 nM.
Assay [29] shares this target. The assay is described as follows: flow cytometry on DLD1 cells, IgG, frequency.
For assay [30] the target is unchanged. The assay is described as follows: IC50 as grade, SIRPα blocking on Raji cells (second part of the table); legend +++: <1 nM.

B1: ABU9 (Fab) (Fab, V domains shown)
VH: EVQLQQSGPELVKPGASVKLSCKASGFTFTNYYIHWVKQRPGQGPEWIGWIYLGSGNTKYNEKFKGKATLTADTSSSTAYLQLSTLISEDSAVYYCARYDYDLYLDSWGQGTTVTVSS
VL: DIKMNQSPSSLSASLGDTITITCHASQNINVWLSWYQQKPGNIPKLLIYKASNLHTGVPSRFSGSGSGTGFTLTISSLQPEDIATYYCQQGQSYPLTFGAGTKLELK
notes: Phage-derived Fab: murine VL and VH fused to human CL and CH1
In the case of B1, the “IC50 (read off the curve)” value in assay [1] was roughly 9 nM; with His-tagged CD47 [2] it was roughly 3 nM; with His-tagged CD47 [7], roughly 2 nM. Moreover, the figures for the concentration giving a half-maximal response (EC50 (read off the curve)) in assay [3] and in [9] were roughly 2 nM and roughly 6 nM, respectively. Further, the IC50 is less than 10 nM in assay [4], 2 to 2.7 nM in the assay with His-tagged CD47 [6] and less than 2 nM with His-tagged CD47 [10]. For the same molecule, the values for the EC50 in assay [5] and in [8] were 1 to 7 nM and less than 5 nM, respectively.

B2: ABU14 (Fab) (Fab, V domains shown)
VH: EVQLQQSGPELVKPGASVKISCKASGYSFTNYHIHWVKQRPGQGLEWIGWIYPGSGNTKYNEKFKGMAILTADTSSSTAYMQLSSLTSEDSAVYYCARYDYDLYLHSWGQGTTVTVSS
VL: B1 VL with K3Q, M4I, L106I
notes: as for B1
Turning to B2, the “IC50 (read off the curve)” value is roughly 20 nM in assay [1], roughly 3 nM with His-tagged CD47 [2] and roughly 2 nM with His-tagged CD47 [7]. The results for the EC50 in [11] and in [8] were greater than 7 nM and less than 5 nM, respectively. The results for the “EC50 (read off the curve)” value in assay [3] and in assay [9] were roughly 4 nM and roughly 10 nM, respectively. The concentration for half-maximal inhibition (IC50) was 2 to 2.7 nM in the assay with His-tagged CD47 [6], 10 to 65 nM in assay [12] and less than 2 nM with His-tagged CD47 [10].

B3: Positive 3 (analogue antibody) (antibody, V domains shown)
VH: QMQLVQSGAEVKKTGSSVKVSCKASGFNIKDYYLHWVRQAPGQALEWMGWIDPDQGDTEYAQKFQDRVTITRDRSMSTAYMELSSLRSEDTAMYYCNAAYGSSSYPMDYWGQGTTVTV
VL: NIQMTQSPSAMSASVGDRVTITCKASQDIHRYLSWFQQKPGKVPKHLIYRANRLVSGVPSRFSGSGSGTEFTLTISSLQPEDFATYYCLQYDEFPYTFGGGTKVEIK
B3: the “IC50 (read off the curve)” value in assay [13] was roughly 0.6 nM; in assay [14], roughly 1 nM; in assay [15], roughly 0.3 nM; in assay [17], roughly 1 nM; with His-tagged CD47 [2], roughly 3 nM; in assay [24] it was roughly 0.9 nM. Moreover, the “IC50 (read off the curve)” value with His-tagged CD47 [7] is roughly 3 nM; in assay [26], roughly 0.6 nM. The half-maximal effective concentration (EC50 (read off the curve)) is roughly 1 nM in assay [16]; roughly 0.6 nM in [19]; roughly 0.6 nM in assay [22]; roughly 1 nM in [23]; roughly 1 nM in assay [27]; roughly 0.07 nM in assay [29]. Further, the IC50 was less than 1 nM in assay [18]; greater than 2.7 nM with His-tagged CD47 [20]; less than 1 nM in assay [21]; greater than 2.7 nM with His-tagged CD47 [25]; 1 to 20 nM in assay [28]; less than 1 nM in assay [30].
